Results reported in patent publication US20150098945A1 (Daiichi Sankyo, published 2015).

Experiments:
[1] = biological target: T1, N-terminal FLAG-tagged human ROBO4 extracellular region/domain deletion variant hROBO4-225 (human, UniProt Q8WZ75 225-1007); experiment: flow cytometry, HEK293 cells transfected with pCI-FLAG-hROBO4-225, anti-mouse IgG FITC; control histogram IgG (Mouse IgG2a)
T1 construct: On transfected HEK293 cells
T1 sequence: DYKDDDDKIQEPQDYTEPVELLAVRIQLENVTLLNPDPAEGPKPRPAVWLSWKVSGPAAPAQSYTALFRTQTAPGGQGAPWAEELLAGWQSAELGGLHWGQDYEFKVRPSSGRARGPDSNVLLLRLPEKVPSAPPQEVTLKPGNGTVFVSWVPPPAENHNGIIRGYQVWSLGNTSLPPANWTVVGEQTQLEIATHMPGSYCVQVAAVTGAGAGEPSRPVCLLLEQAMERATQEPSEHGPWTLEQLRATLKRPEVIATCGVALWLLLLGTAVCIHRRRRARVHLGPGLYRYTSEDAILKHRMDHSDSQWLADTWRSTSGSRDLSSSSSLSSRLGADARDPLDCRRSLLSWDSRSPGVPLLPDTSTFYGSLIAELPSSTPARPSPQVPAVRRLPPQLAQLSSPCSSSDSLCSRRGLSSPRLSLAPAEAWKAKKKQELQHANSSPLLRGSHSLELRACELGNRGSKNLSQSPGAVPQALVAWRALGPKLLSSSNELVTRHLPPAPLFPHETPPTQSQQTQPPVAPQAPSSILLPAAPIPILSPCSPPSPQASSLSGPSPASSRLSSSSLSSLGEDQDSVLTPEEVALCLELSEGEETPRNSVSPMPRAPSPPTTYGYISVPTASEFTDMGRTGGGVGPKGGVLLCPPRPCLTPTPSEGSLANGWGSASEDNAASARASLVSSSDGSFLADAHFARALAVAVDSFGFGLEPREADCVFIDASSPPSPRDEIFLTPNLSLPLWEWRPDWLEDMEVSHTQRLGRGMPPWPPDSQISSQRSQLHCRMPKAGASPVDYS
Protocol: Each cell suspension prepared in 4)-5-1 was centrifuged, and the supernatant was removed. Then, MAb1, a positive control Monoclonal ANTI-FLAG M2 antibody produced in mouse, or a negative control Mouse IgG2a was added at a concentration of 10 μg/mL to 2×10⁵ expression vector-transfected cells, and the resulting suspension was left standing at 4° C. for 1 hour. The cells were washed once with PBS containing 5% FBS. Then, Anti-Mouse IgG FITC conjugate diluted 1000-fold with PBS containing 5% FBS was added thereto, and the resulting suspension was left standing at 4° C. for 1 hour. The cells were washed with three times with PBS containing 5% FBS, then resuspended in PBS containing 5% FBS, and subjected to detection using a flow cytometer (BD FACSCalibur; BD Biosciences). Data was analyzed using Flowjo. The histogram of FITC fluorescence intensity was prepared. The antibody was determined to bind to a cell when the histogram of MAb1 was shifted to a stronger fluorescence intensity region compared with the histogram of the negative control Mouse IgG2a. […] In this context, each intracellular region/domain deletion variant was confirmed to be expressed on the cell membrane using the positive control anti-FLAG antibody (FIG. 9).

[2] = biological target: T2, N-terminal FLAG-tagged human ROBO4 extracellular region/domain deletion variant hROBO4-132 (human, UniProt Q8WZ75 132-1007); experiment: flow cytometry, HEK293 cells transfected with pCI-FLAG-hROBO4-132, antibody at 10 µg/mL, anti-mouse IgG FITC; control histogram IgG (Mouse IgG2a)
T2 construct: On transfected HEK293 cells; also called pCI-FLAG-hROBO4-132; pCI-hROBO4-132
T2 sequence: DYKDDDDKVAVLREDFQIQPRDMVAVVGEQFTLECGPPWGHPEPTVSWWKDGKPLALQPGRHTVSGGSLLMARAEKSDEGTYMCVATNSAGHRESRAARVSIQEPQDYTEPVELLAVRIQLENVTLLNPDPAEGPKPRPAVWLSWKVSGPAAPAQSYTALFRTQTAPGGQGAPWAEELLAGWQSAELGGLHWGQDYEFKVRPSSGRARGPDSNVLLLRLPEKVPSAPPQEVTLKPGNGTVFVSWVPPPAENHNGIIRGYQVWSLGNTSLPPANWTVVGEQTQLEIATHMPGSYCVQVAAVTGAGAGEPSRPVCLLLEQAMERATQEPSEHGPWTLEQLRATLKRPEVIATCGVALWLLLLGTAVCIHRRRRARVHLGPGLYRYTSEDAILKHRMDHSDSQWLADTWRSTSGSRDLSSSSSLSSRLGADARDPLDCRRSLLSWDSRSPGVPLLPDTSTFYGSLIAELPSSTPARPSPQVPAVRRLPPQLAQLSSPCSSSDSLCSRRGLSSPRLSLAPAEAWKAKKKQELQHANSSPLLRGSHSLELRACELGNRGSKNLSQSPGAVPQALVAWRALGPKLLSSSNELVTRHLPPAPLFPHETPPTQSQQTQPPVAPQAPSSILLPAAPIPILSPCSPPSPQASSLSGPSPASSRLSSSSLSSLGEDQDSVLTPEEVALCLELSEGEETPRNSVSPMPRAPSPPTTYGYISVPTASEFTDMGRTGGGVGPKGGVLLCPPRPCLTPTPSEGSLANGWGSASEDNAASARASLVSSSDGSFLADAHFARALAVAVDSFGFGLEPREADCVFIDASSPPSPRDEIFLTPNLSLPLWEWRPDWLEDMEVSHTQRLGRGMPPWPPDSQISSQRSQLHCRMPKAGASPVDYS
Protocol: HEK293 cells were inoculated at a concentration of 1.5×10⁶ cells/dish to a 60-mm dish (manufactured by Corning Inc.) and cultured overnight in a DMEM medium containing 10% FBS at 37° C. under 5% CO₂ conditions. […] On the next day, the expression vector-transfected cells were treated with TrypLE Express (manufactured by Life Technologies Corp.), washed with PBS containing 5% FBS, and then suspended in PBS containing 5% FBS. The obtained cell suspension was used in flow cytometry analysis.
Each cell suspension prepared in 4)-5-1 was centrifuged, and the supernatant was removed. Then, MAb1, a positive control Monoclonal ANTI-FLAG M2 antibody produced in mouse, or a negative control Mouse IgG2a was added at a concentration of 10 μg/mL to 2×10⁵ expression vector-transfected cells, and the resulting suspension was left standing at 4° C. for 1 hour. The cells were washed once with PBS containing 5% FBS. Then, Anti-Mouse IgG FITC conjugate diluted 1000-fold with PBS containing 5% FBS was added thereto, and the resulting suspension was left standing at 4° C. for 1 hour. […] Data was analyzed using Flowjo. The histogram of FITC fluorescence intensity was prepared. The antibody was determined to bind to a cell when the histogram of MAb1 was shifted to a stronger fluorescence intensity region compared with the histogram of the negative control Mouse IgG2a. […]

B1: anti-ROBO4 mouse monoclonal antibody MAb1 (antibody, mouse IgG1, V domains shown)
VH: EVQLVESGGGLVKPGGSLKLSCAASGFTFSTYAMSWVRQTPEKRLEWVATISNGGTYTYYPDSVKGRFTISRDNAENTLYLQMSSLRSEDTAMYFCARLIYYDYLDYWGHGTTLTVSS
VL: DAVMTQTPLSLPVSLGDQASISCRSSQSLENSNGNTYLNWYFQKPGQSPQLLIYRVSNRFSGVLDRFSGSGSGTDFTLKISRVEAEDFGVYFCLQVTHVPWTFGGGTKLEIKR
notes: Mouse IgG1 (gamma1), kappa light chain, purified from hybridoma supernatant; also called parent antibody MAb1
[1]
  binding result: no binding (tested: 10 µg/mL)
[2]
  binding result: binds
